The values below come from patent publication US20190276551A1 (UNIVERSITY MEDICAL CENTER HAMBURG EPPENDORF, published 2019).

Assay [1] deals with T1, human CD38 protein immobilised on AR2G biosensor (human, UniProt P28907 43-300, limits assumed).
T1 construct: Construct used on the Octet is not described; also called immobilised human CD38
Nature of the assay: Octet BLI, immobilised CD38. Background: Biolayer interferometry detects binding as a change in optical thickness at a sensor tip.

The target in a further assay is T2, human CD38 on cells (human, UniProt P28907 1-300).
T2 construct: also called native CD38; CD38 on LP-1 myeloma cells, CD38-transfected NIH-3T3 cells, blood leukocytes, CD38-transfected DC27.10 cells
Nature of the assay: binding assays of Example 4.

For assay [2], the target named is T3, soluble, non-glycosylated, recombinant human CD38 (human, UniProt P28907 43-300, Alexa 647 conjugate).
T3 construct: also called recombinant human non-glycosylated extracellular domain of CD38
Nature of the assay: micro-scale thermophoresis, n = 2.

Broadly, the koff is the first-order rate constant of dissociation. High values mean a short-lived complex, low ones a long-lived complex. Broadly, the Kd is the free concentration of one partner at which half of the binding sites on the other are occupied at equilibrium, for simple one-to-one binding.

B1: MU1105 (VHH)
VHH: DVQLQASGGGLVQAGGSLRLSCAASGFTFDDYVIGWFRQAPGKEREGVSSISSSGSIYYADSVKGRFTISSDNAKNTVYLQMNSLKPEDTAVYFCAADVTLNPFTGWDTRSGPMYRYEYDYWGQGTQVTVSS
notes: His6-Myc-tagged monovalent VHH; also called I-24a; I-24.1a
B1 showed a koff in assay [1] of less than 0.0003 s⁻¹.

B2: MU1103 (VHH)
VHH: DVQLQASGGGLVQAGGSLRLSCAASEFTFDDYVIGWFRQAPGKEREGVSSISSDGSTYYADSVKGRFTISSDNAKNTVYLHMNSLKPEDTAVYYCAADVTLNPFTGWTTRSGPMYRYEYDYWGQGTQVTVSS
notes: His6-Myc-tagged monovalent VHH; also called s-24.1c; family 22
Take B2: in the assay with human CD38 on cells, the binding result was “binds”.

B3: MU523 (VHH)
VHH: DVQLQESGGGLVQAGSSLRISCAVSGVRLDNYAMGWFRQAPGKERESVAGISWSSGTLLYSDSVKGRFAISRDNAKNTVYLQMNSLKPEDTAVYYCAAQYQDRYYDEFTWKEKDMDYWGKGTLVTVSS
notes: His6-Myc-tagged monovalent VHH; also called L-19.1a; I-19.1a
As for B3, in assay [2], the Kd is 3 nM.

B4: MU415 (VHH)
VHH: VQLQASGGGLVQAGGSLRLSCTVSGFTSDDYTVGWFRQAPGLKREGLSCLSRRDGRFYHSNSVKGRFTMSSDDNKNTVYLQLDSLKPDDTAVYYCAATTSVVVLLAPNWYEYWGQGTQVTVSS
notes: also called L+15; I+15b
For B4, the Kd in assay [2] is 23 nM.

B5: Jk25 (VHH)
VHH: QVKLQESGGGLVQPGGSLRLSCVASGSISSIITMGWYRQAPGKQREFVARVIIGGSTGYADSVKGRFTISRDNTKNTVYLEMNSLKPEDTAVYYCNAGNPGTSYHYWGQGTQVTVSS
notes: His6-Myc-tagged monovalent VHH; also called I-9.3a; family 6
Turning to B5, in the assay with human CD38 on cells, the binding result is given as “binds”.

B6: JK12 (VHH)
VHH: QVQLQESGGGLVQPGGSLRLSCVASERIFSRNTMGWYRQAPGKQRELVARIASLGITNYADSVKGRFTISSDNAKNTVYLQMNNLKPEDTAVYYCNYWHYAAGRDYWGQGTQVTVSS
notes: His6-Myc-tagged monovalent VHH; also called I-9.1a; family 4
On to B6, for which, in the assay with human CD38 on cells, the binding result is on record as “binds”.

B7: Jk42 (VHH)
VHH: QVKLQESGGGLVQPGGSLRLSCVASERIFSRNTMGWYRQAPGKQRELVAYITSLGIANYADSVKGRFTISSDNAKNTVYLQMNNLKSEDTAVYNCNYWHYAAGRDYWGQGTQVTVSS
notes: His6-Myc-tagged monovalent VHH; also called I-9.1d; family 4
On to B7, for which the binding result with human CD38 on cells is listed as “binds”.

B8: Jk14 (VHH)
VHH: EVQLVESGGGLVQAGGSLRLSCVASERIFSRNTMGWYRQAPGKQRELVARIASLGITNYADSVKGRFTISSDNAKNTVYLQMNNLKPEDTAVYYCNYWHYAAGRDYWGQGTQVTVSS
notes: His6-Myc-tagged monovalent VHH; also called I-9.1b; family 4
For the molecule B8, the binding result with human CD38 on cells was “binds”.

B9: WF139 (VHH)
VHH: SGGGLVQAGGSQRLSCAASGHTFSSYSMAWFRQAPGKEREFVAANIMSGTNTYYADSVRGRFTMSRDIAKNTVYLQMNSLKEEDTALYYCAAADRFRGWATWRDDPDQYDYWDQGTQVTVSS
notes: His6-Myc-tagged monovalent VHH; also called s-19b; s-19.1b
As for B9, the koff in assay [1] is less than 0.00022 s⁻¹.

B10: MU274 (VHH)
VHH: DVQLQESGGGLVQAGGSLRLSCAASGVSFSRYTMGWYREVPGKERREFVAAVRPSGDSTYYGNSVKGRFSISRDDDKNIVYLQMNSLKPEDTAVYYCAAGFPVLVALSIADPDYWGQGTQVTVST
notes: also called L-15.2a; I-15.2a
On to B10, for which the Kd in assay [2] came out at 3 nM.

B11: Jk34 (VHH)
VHH: QVQLQESGGRLVQPGGSLRLSCAASGRTFSNYAMAWFRQGPGKEREFVAAISAADSTLYADFVKGRFTISRDNAKNTVYLQMNSLKPEDTAVYYCAARWWIAVRAPAEYNYWGQGTQVTVSS
notes: His6-Myc-tagged monovalent VHH; also called I-14.2c; family 11
Regarding B11, the binding result with human CD38 on cells is listed as “binds”.

B12: Jk35 (VHH)
VHH: QVKLQESGGRLVQPGGSLRLSCAASGRTFSNYAMAWFRQGPGKEREFVAAISAADSTLYADFVKGRFTISRDNAKNTVYLQMNSLKPEDTAVYYCAARWWIAVRAPAEYNYWGQGTQVTVSS
notes: His6-Myc-tagged monovalent VHH; also called I-14.2d; family 11
B12: the binding result with human CD38 on cells is reported as “binds”.

B13: Jk24 (VHH)
VHH: QVQLQESGGGLVQPGGSLRLSCAASGIILRIYDMGWYRQAPGKQRELVAEITSGGSTNYADSVKGRFTISRDNAENTVSLQMNSLKPGDTAVYYCNAHHTFAGAYWGQGTQVTVSS
notes: His6-Myc-tagged monovalent VHH; also called I-8.2c; family 2
Turning to B13, the binding result with human CD38 on cells is “binds”.

B14: Jk32 (VHH)
VHH: QVQLQESGGGLVQPGGSLRLSCAASGSTLRLYDMGWYRQADGKQRELVAEITSGGSTNYANSVKGRFTISRDNAENTVSLQMNSLKPEDTAVYYCNAEHTFMGAYWGQGTQVTVSS
notes: His6-Myc-tagged monovalent VHH; also called I-8.2e; family 2
For the molecule B14, in the assay with human CD38 on cells, the binding result is recorded as “binds”.

B15: WF32 (VHH)
VHH: QVQLQESGGGLVQAGGSLRLSCAASGIILRIYDMGWYRQAPGKQRELVAAITSGGSTNYADSVKGRFTISRDNAKSMVYLQMNSLKPEDTAVYYCNAWHVFRGNYWGQGTQVTVSS
notes: His6-Myc-tagged monovalent VHH; also called I-8.2f; family 2
In assay [1], B15 returned a koff of 0.00026 s⁻¹.

B16: Jk30 (VHH)
VHH: QVQLQESGGGLVQPGGSLRLSCAASGIILRIYDMGWYRQAPGKQRELVAAITSGGRTNYADSVKGRFTISRDNAENTVSLQMNSLKSGDTAVYYCNADHTFAGVYWGQGTQVTVSS
notes: His6-Myc-tagged monovalent VHH; also called I-8.2b; family 2
Turning to B16, in the assay with human CD38 on cells, the binding result is “binds”.

B17: Jk31 (VHH)
VHH: QVQLQESGGGLVQPGGSLRLSCAASGIILRLYDMGWYRQTPGKQRELVAEITSGGSTNYADSVKGRFTISRDNAENTVSLQMNSLKSGDTAVYYCNADHTFAGVYWGQGTQVTVSS
notes: His6-Myc-tagged monovalent VHH; also called I-8.2d; family 2
In the case of B17, the binding result with human CD38 on cells was “binds”.

B18: MU1068 (VHH)
VHH: DVQLQASGGGSVQEGESLKLSCVGSGRTFSDWAMGWYRQAPGKDREFVAAVSGAGRGGKPSYANSVKGRFTVSRDNAKNTVYLQMDNLKPEDTAVYYCAADRLVLVALSIADPGFWGQGTRVTVSS
notes: also called L-15.1b; I-15.1b
B18: the Kd in assay [2] came to 1.38 nM.

B19: MU1065 (VHH)
VHH: DVQLQESGGGLVQAGDSLRLSCAASGPHFNNYAIGWFRQAPGKEREFVAGISWSSGSLLYSDSVKGRFTISRDNDKNTAYLQMNSLKPEDTALYYCAAQYQERYYSDFSLKEKGMEYWGKGTLVTVSS
notes: His6-Myc-tagged monovalent VHH; also called I-19.1b; family 19
Consider B19, for which, in the assay with human CD38 on cells, the binding result is “binds”.

B20: Jk20 (VHH)
VHH: QVQLQESGGGLVQAGGSLRLSCAISGRTFIADMGWFRQAPGKEREFQAGITWFGGSTYYADSVKGRFTISRDNTKNTLYLQMNSLKPEDTAIYYCAAGLKRIGDQREADYWGQGTQVTVSS
notes: His6-Myc-tagged monovalent VHH; also called I-13.1a; family 8
Consider B20, for which the binding result with human CD38 on cells is given as “binds”.

B21: Jk26 (VHH)
VHH: QVQLQESGGGLVQAGGSVRLSCAISGRTFINDMGWFRQAPGKEREFQAGITWFGGSTYYADSVKGRFTISRDNTKNTLYLQMNSLKPEDTAIYYCAAGLKRIGDQREADYWGQGTQVTVSS
notes: His6-Myc-tagged monovalent VHH; also called I-13.1b; family 8
Turning to B21, the binding result in the assay with human CD38 on cells is “binds”.

B22: Jk27 (VHH)
VHH: EVQLVESGGGLVQAGGSLRLSCAISGRTFIADMGWFRQAPGKEREFQAGITWFGGSTYYADSVKGRFTISRDNTKNTLYLQMNSLKPEDTAIYYCAAGLKRIGDQREADYWGQGTQVTVAS
notes: His6-Myc-tagged monovalent VHH; also called s-13.1a; family 8
B22: the binding result in the assay with human CD38 on cells is recorded as “binds”.

B23: MU413 (VHH)
VHH: DVQLQASGGGLVQTGDSLTVSCAASGLSFTRYTMGWYREVPGKERREFVAAVKPAGDSAYYGASVKGRFTASRDNAKNTVTLQMNSLKPEDTAIYYCAAGFPVLTALHIADPDYWGQGTQVTVSP
notes: His6-Myc-tagged monovalent VHH; also called I-15.2b; family 13
For the molecule B23, the binding result in the assay with human CD38 on cells is “binds”.

B24: MU727 (VHH)
VHH: DVQLQASGGGLVQAGGSLRLSCAGSGRTFSSYAMGWFRQAPGKEREFVASISWSGSRTNYGVPVKGRFTISRDNAKNTVYLQMSSLKPEDTAVYYCAADRFAVAIGTHDLDYWGQGTQVTVSS
notes: His6-Myc-tagged monovalent VHH; also called s-14.1d; family 9
As for B24, the binding result with human CD38 on cells was “binds”.

B25: WF129 (VHH)
VHH: DVQLQASGGGLVQAGGSLRLSCEFSGRTFSGFAMGWFRQFPGKEREFVAAINWSGSSVDYSDSVKGRFTISRDNVKSTMYLVMNSLKPEDTAVYYCAEARSAELGSSRKIQGYDQWGRGTQVTVSS
notes: His6-Myc-tagged monovalent VHH; also called I-17.1b; family 18
With B25, in the assay with human CD38 on cells, the binding result is recorded as “binds”.

B26: WF141 (VHH)
VHH: DVQLQASGGGLVQAGGSLRLSCEFSGRTFSGFAMGWFRQFPGKEREFVAAINWSGSSVDYSDSVKGRFTISRDNVKSTMYLVMNSLKPEDTAVYYCAEARSAELGSSRKIQGYDQWGRGTRVTVSS
notes: His6-Myc-tagged monovalent VHH; also called I-17.1c; family 18
On to B26, for which, in the assay with human CD38 on cells, the binding result is “binds”.

B27: MU370 (VHH)
VHH: DVQLQASGGGSVQAGGSLTLSCRYSGGFVFRVSSMGWYRQAPGNQRELIATITVGGKTNYKDSVQGRFIISRNDTTVTLQMNRLQPEDTAVYYCNLASTAVGADTWGQGTRVTVSS
notes: also called I-9.2a
Regarding B27, in assay [2], the Kd amounted to 225 nM.

B28: WF114 (VHH)
VHH: VQLQESGGGLVQAGGSLRLSCAASGFTFDDYVIGWFRQAPGKECEGVSSISNNNSTYYADSVKGRFTIASDNAKNTVYLQMNSLKPEDTAVYYCAADVTLNPFTGWNTRSGPMYRYEYDYWGQGTQVTVSS
notes: His6-Myc-tagged monovalent VHH; also called s+/-24b; s-24.1b
B28 returned a koff in assay [1] of less than 0.00014 s⁻¹.

B29: MU397 (VHH)
VHH: DVQLQASGGGLVQAGGSLRLSCAPSGGTFDAYDMGWYREAPGKKRQFVAAVRSGGGTTRYADSVKGRFTISRDDAKDTVFLQMNSLKPEDTALYYCAADRWGLFSLSIATPTHWGQGTQVTVSS
notes: His6-Myc-tagged monovalent VHH; also called L-15.1a; I-15.1a
B29: the Kd in assay [2] turned out to be 1 nM.

B30: WF140 (VHH)
VHH: DVQLQASGGGSVQAGGSLRLSCAASGLSFSDYAMGWFRQEPGKERRFVASIRSSGGTTYAESVKGRFTISRDNAKNTMYLQMNNLKPEDTAVYYCAADRLVITKLSIADPGYWGQGTQVTVSS
notes: also called s-15a; s-15.1a
In assay [1], B30 yielded an off-rate constant (koff) of 0.00054 s⁻¹.

B31: Jk46 (VHH)
VHH: QVQLQESGGGLVQAGGSLRLSCAASGRTFSSVAMGWFRQAPGKEREFVATINWSGGRTTYADSVKGRFTISRDSAKNTVYLQMNSLKPEDTAVYYCAADRFSVVAVEYDYWGQGTQVTVSS
notes: His6-Myc-tagged monovalent VHH; also called family 7
As for B31, the binding result with human CD38 on cells is reported as “binds”.
